From the nanobody polyreactivity screen of Harvey et al. (2022)

Test: yeast display, Sf9 membrane polyspecificity reagent, FACS + sequencing; frameworks hold sequencing errors
Procedure, shortened: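 Galactose-induced (36–48 hours) yeast carrying a synthetic nanobody display library were exposed to 10% biotinylated, detergent-solubilized Sf9 membrane reagent at 4 °C for 1 hour. FACS followed streptavidin microbead enrichment, using low and high (top ~1%) gates for expression (anti-HA) and reagent binding (streptavidin). Colony PCR, MiSeq 2 × 250 sequencing and CDR-length filtering followed. Labels for polyreactivity reflect the gate of origin.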

| Sequence | polyreactivity (PSR sort gate) |
| --- | --- |
| QVQLVESGGGLVQAGGSLRLSCAASGSTFGRNAMGWYRQAPGKERELVAAISYSGGSTYYADSVKGRFTISRDNAKNTVYLQMNSLKPEDTAVYYCNTVPKPWYSWKYAYDYWGQGTQVTVSS | high polyreactivity |
| QVQLVESGGGLVQAGGSLRLSCAASGSTFGRNAMGWYRQAPGKERELVAASNWSDGSTHYADSVKGRFTISRDNAKNTVYLQMNSLKPEDTAVYYCAADAWSWPVDYNYWGQGTQVTVSS | low polyreactivity |
| QVQLVESGGGLVQAGGSLRLSCAASGSTFGRNAMGWYRQAPGKERELVASISSGGSTYYADSVKGRFTISRDNAKNTVYLQMNSLKPEDTAVYYCARRAYQNWYNYWGQGTQVTVSS | high polyreactivity |
| QVQLVESGGGLVQAGGSLRLSCAASGSTFGRYAMGCYIQAPGKERELVAAITRSGGRTYYADSVKGRFTISRDNAKNTVYLQMNSLIPEDTAVYYCAARSRRRFDWGQGTQVTVSS | high polyreactivity |
| QVQLVESGGGLVQAGGSLRLSCAASGSTFGRYAMGWYGQAPGKERELVAAISASGASTYYADSVKGRFTISRDNAKNTVYLQMNSLKPEDTAVYYSNAPYYFAGKPWGSWRYGYWGQGTQVTVSS | low polyreactivity |
| QVQLVESGGGLVQAGGSLRLSCAASGSTFGRYAMGWYRQAPGKEREFVAGITGRGGSTYYADSVKGRFTISRDNAKNTVYLQMNSLKPEDTAVYYCAAGYRVGYLRAGDYWGQGTQVTVSS | high polyreactivity |
| QVQLVESGGGLVQAGGSLRLSCAASGSTFGRYAMGWYRQAPGKERELVAAINSRGGRKYYADSVKGRFTISRDNAKNTVYLQMNSLIPEDTAVYYCAAPTGPNGYYSDRGDSWGQGTQLTVSS | low polyreactivity |
| QVQLVESGGGLVQAGGSLRLSCAASGSTFGRYAMGWYRQAPGKERELVAAISESDGSTYYADSVKGRFTISRDNAKNTVYLQMNSLKPEDTAVYYCAAEWTHYWWYQYDYWGQGTQVTVSS | high polyreactivity |
| QVQLVESGGGLVQAGGSLRLSCAASGSTFGRYDMGSYRQAPGKERELVAAISRSGGGTYYADSVKGRFTISRDNAKNTVYLQMNSLKPEDTAVYYCAADYRDYPDSAYYYWGQGTQVTVSS | low polyreactivity |
| QVQLVESGGGLVQAGGSLRLSCAASGSTFGRYVMGWYRQAPGKEWELVAAISKNAGSTYYADSVKGRFTISRDNAKNTVYLQMNSLKPEDTAVYYCAADWRTKGYDSLGQGTQVTVSS | high polyreactivity |
| QVQLVESGGGLVQAGGSLRLSCAASGSTFGSNAMGWYRQAPGKERELVAAIDANGGSTYYADSVKGRFTISRDNAKNTVYLQMNSLKPEDTAVYYCAAAGYWYYYVPNDYWGQGTQVTVSS | low polyreactivity |
| QVQLVESGGGLVQAGGSLRLSCAASGSTFGSNAMGWYRQAPGKERELVAAITGGDVSTYYADSVKGRFTISRDNAKNTVYLQMNSLKPEDTAVYYCNAEYARPAMDYWGQGTQVTVSS | low polyreactivity |
| QVQLVESGGGLVQAGGSLRLSCAASGSTFGSYAMGWYIQAPGKERELVAAINWSGGITYYADSVKGRFTISRDNAKNTVYLQMNSLKPEDTAVYYCAADTRTYYYGSTYDYEYWGQGTQVTVSS | low polyreactivity |
| QVQLVESGGGLVQAGGSLRLSCAASGSTFGSYAMGWYRQAPGKERELVAAISRGGGSTYYADSVKGRFTISRDNAKNTVYLQMNSLKPEDTAVYYCAATAQNDSRYGSRYYYWGQGTQVTVSS | high polyreactivity |
| QVQLVESGGGLVQAGGSLRLSCAASGSTFGSYAMGWYRQAPGKERELVAGISWSGGRTYYADSVKGRFTISRDNAKNTVYLQMNSLKPEDTAVFYCALDTGYYYARYNFWGQGTKVTVSS | low polyreactivity |
| QVQLVESGGGLVQAGGSLRLSCAASGSTFGTNAMGRYRQAPGKERELVAVITFSGGSTYYADSVKGRFTISRDNAKNTVYLQMNSLKPEDTAVYYCAKDGFITFVYDHDYWGQGTQVTVSS | low polyreactivity |
| QVQLVESGGGLVQAGGSLRLSCAASGSTFGTNAMGWYRQAPGKERELVAAITKSGGSTYADSVKGRFTISRDNAKNTVYLQMNSLKPEDTAVYYCAAPNRYSVPMYYWGQGTQVTVSS | low polyreactivity |
| QVQLVESGGGLVQAGGSLRLSCAASGSTFGTNDMGWYRQAPGKEREFVASIDWSGDSTNYADSVKGRFTISRDNAKNTVYLQMNSLKPEDTAVYYCAARVFPPSRHDYWGQGTQVTVSS | high polyreactivity |
| QVQLVESGGGLVQAGGSLRLSCAASGSTFGTNVMGWYRQAPGKERELVAAISGRGGRTYYADSVKGRFTISRDNAKNTVYLQMNSLKPEDTAVYYCAAPRYYSREYDYWGQGTQVTVSS | high polyreactivity |
| QVQLVESGGGLVQAGGSLRLSCAASGSTFGTYAMGWYRQAPGKERELVADITGSGGSTYYADSVKGRFTISRDNAKNTVYLQMNSLKPEDTAVYYCAAEYGLGDDTAYGYWGQGTQVTVSS | low polyreactivity |
| QVQLVESGGGLVQAGGSLRLSCAASGSTFGVNAKGWYREAPGKERELVAGITSSGGSTYYADSVKGRFTTSRDNAKNTVYLQMNSLKPEDTAVYYCAARWIPASYGYGYWGQGTQVTVSS | low polyreactivity |
| QVQLVESGGGLVQAGGSLRLSCAASGSTFGVNAMGWYRQAPGKERELVAAIDADGGITYYADSVKGRFTISRDNAKNTVYLQMNILKPEDTAVYYCAARVAVYFSYGSPYWYEYDYWGQGTQVTVSS | low polyreactivity |

| Sequence | polyreactivity (PSR sort gate) |
| --- | --- |
| QVQLVESGGGLVQAGGSLRLSCAASGSTFGVNAMGWYRQAPGKERELVAAISVSGGRTYYADSVKGRFTISRDNAKNTVYLLMNSLKPEDTAVYYCAATTYIWPYDYWGQGTQVTVSS | low polyreactivity |
| QVQLVESGGGLVQAGGSLRLSCAASGSTFGVNAMGWYRQAPGKERELVAGISVDDSTTYYADSVKGRFTISRDNAKNTVYLQMNSLIPEDTAVYYCAAEREKTLYYLSRFDYWGQGTQVTVSS | low polyreactivity |
| QVQLVESGGGLVQAGGSLRLSCAASGSTFGVNAMGWYRQAPGKERELVASISSGGGTYYADSVKGRFTISRDNAKNTVYLQMNSLKPEDTAVYYCAAVYYWYDSYAGYDYWGQGTQVTVSS | low polyreactivity |
| QVQLVESGGGLVQAGGSLRLSCAASGSTFGVNDMGWYRQAPGKERELVAAISRGAITNYADSVKGRFTISRDNAKNTVYLQMNSLKPEDTAVYYCAAGFVTYYVPQYKEYGYDYWGQGTQVTVSS | low polyreactivity |
| QVQLVESGGGLVQAGGSLRLSCAASGSTFGVYALGWYIPAPGKERELVDRITWSGGSTYYADSVKGRFTISRDNAKNTVYLQMNSLKPEDTAVFYCAARAWWDWYSPLWYYYWGQGTQVTVSS | high polyreactivity |
| QVQLVESGGGLVQAGGSLRLSCAASGSTFGVYAMGWYRQAPAKEMELVARITWSGGSTDYADSVKGRFTISRDNAKNTVYLQMNSLKPEDTAVYYCAARAWWDWYSPRWYYYWGQGTQVTVSS | high polyreactivity |
| QVQLVESGGGLVQAGGSLRLSCAASGSTFGVYAMGWYRQAPGKERELVAAINYSGRTYYADSVKGRFTISRDNAKNTVYLQMNSLKPEDTAVYYCAARIIVDDVGTKYYYWGQGTQVTVSS | high polyreactivity |
| QVQLVESGGGLVQAGGSLRLSCAASGSTFGVYAMGWYRQAPGKERELVAAISGSGGSTYYADSVKGRFTISRDNAKNTVYLQMNSLKPEDTAVYYCAAKVRHYYSASNYYYWGQGTQVTVSS | high polyreactivity |
| QVQLVESGGGLVQAGGSLRLSCAASGSTFGVYAMGWYRQAPGKERELVAAISYTGGSTYYADSVKGRFTISRDNAKNTVYLQMNSLKPEDTAVYYCATRSRDQYSVSYRLDYWGQGTQVTVSS | low polyreactivity |
| QVQLVESGGGLVQAGGSLRLSCAASGSTFGVYAMGWYRQAPGKERELVATITRSGGNTYYADSVKGRFTISRDNAKNTVYLQMNSLKPEDTAVYYCAARRLYGSQRGYWGQGTQVTVSS | high polyreactivity |
| QVQLVESGGGLVQAGGSLRLSCAASGSTFGVYARGWYRQAPGKERELVAAIRDRGGSTYYADSVKGRFTISRDNAKNTVYLQMNSLKPEDTAVYYCATRTWWEYYYWGQGTQVTVSS | high polyreactivity |
| QVQLVESGGGLVQAGGSLRLSCAASGSTFGVYARGWYRQAPGKERELVAAISSSTGSTYYADSVKGRFTISRDNEKNTVYLQMNSLKPEDTAVYYCAAAGYGKVRGDYWGQGTQVTVSS | low polyreactivity |
| QVQLVESGGGLVQAGGSLRLSCAASGSTFGWNAMGWYRKAPGKERELVAAISSYGGITYYADSVKGRFTISRDNEKNTVYLQMNSLKPEDTAVYYCAAERDDDWVNYWGQVTQVTVSS | low polyreactivity |
| QVQLVESGGGLVQAGGSLRLSCAASGSTFGWNAMGWYRQAPGKERDLVAAITGGGSTYYADSVKGRFTISRDNAKNTVYLQMNSLKPEDSAVYYCEGDYWGQGTQVTVSS | low polyreactivity |
| QVQLVESGGGLVQAGGSLRLSCAASGSTFGWNAMGWYRQAPGKERELVAAITADDDDTYYADSVKGRFTISRDNAKNTVYLQMNSLKPEDTAVYYCATEKWFWYGDWYDYWGQGTQVTLSS | high polyreactivity |
| QVQLVESGGGLVQAGGSLRLSCAASGSTFGWNAMGWYRQAPGKERELVAAITRGGRTTYADSVKGRFTISRDNAKNTVYLQMNSLKPEDTAVYYCAALHGRYPNRYDYWGQGTQVTVSS | low polyreactivity |
| QVQLVESGGGLVQAGGSLRLSCAASGSTFGWYAMGWYRKAPGKERELVAAISTTGGRTYYADSVKGRFTISRDNAKNTVYLQMNSLKPEDTAVYYCNARGRRYVYSYGYDYWGQGTQVTVSS | high polyreactivity |
| QVQLVESGGGLVQAGGSLRLSCAASGSTFGWYAMGWYRQAPGKERDFVASITSSTGSTYYADSVKGRFTISRDNAKNTVYLQMYSLKPEDTAVYYCAASYVYTFLSYLLEYDYWGQGTQVTVSS | high polyreactivity |
| QVQLVESGGGLVQAGGSLRLSCAASGSTFGWYAMGWYRQAPGKERELVAAITSGGGTYYADSVKGRFTISRDNAKNTVYLQMNSLKPEVTAVYYCAADFVYSGWAPYDFWVTSYDYWGQGTQVTVSS | low polyreactivity |
| QVQLVESGGGLVQAGGSLRLSCAASGSTFGWYAMGWYRQAPGKERELVASITSGGRTNYADSVKGRFTISRDNAKNTVYLQMNSLKTEDTAVYYCAKRVYGSNSLYDYWGQGTQVTVSS | low polyreactivity |
| QVQLVESGGGLVQAGGSLRLSCAASGSTFGWYVMGWYRQAPGKERELVAAITTGGSTNYADSVKGRFTISRDHAKNSVYLQMNSLKPEDTAVYYCGKAVTEVIYRGVTEGAVDYWGQGTQVTVSS | low polyreactivity |
